Measured values from article PMC6356362.

Target: recombinant GP of EBOV (Mayinga strain), mucin and TM domains-deleted protein (GP[change] sequence w (Zaire ebolavirus (EBOV), Mayinga strain), Q05320
Test: SPR
Settings: remark: other sources report otherwise

B1: recombinant human surfactant protein D (hSP-D) dodecamers, P35247 21-375 (natural protein)
chain: AEMKTYSHRTMPSACTLVMCSSVESGLPGRDGRDGREGPRGEKGDPGLPGAAGQAGMPGQAGPVGPKGDNGSVGEPGPKGDTGPSGPPGPPGVPGPAGREGPLGKQGNIGPQGKPGPKGEAGPKGEVGAPGMQGSAGARGLAGPKGERGVPGERGVPGNTGAAGSAGAMGPQGSPGARGPPGLKGDKGIPGDKGAKGESGLPDVASLRQQVEALQGQVQHLQAAFSQYKKVELFPNGQSVGEKIFKTAGFVKPFTEAQLLCTQAGGQLASPRSAAENAALQQLVVAKNEAAFLSMTDSKTEGKFTYPTGESLVYSNWAPGEPNDDGGSEDCVEIFTNGKWNDRACGEKRLVVCEF
- Kd: 0.33 nM
- koff: 0.00121 s⁻¹
- kon: 3.65e+06 M⁻¹ s⁻¹
